The results in this text go back to PMC8027542.

One assay addresses CD14 (UniProt P08571). Kind of assay: SPR; TLR2 or CD14 (ligands) immobilised on a CM5 chip; different SIC concentrations as analyte; 1:1 Langmuir fit.
The target in a further assay is TLR2 (UniProt O60603). Described as above.
Sequence of UniProt O60603 (O60603 21-784): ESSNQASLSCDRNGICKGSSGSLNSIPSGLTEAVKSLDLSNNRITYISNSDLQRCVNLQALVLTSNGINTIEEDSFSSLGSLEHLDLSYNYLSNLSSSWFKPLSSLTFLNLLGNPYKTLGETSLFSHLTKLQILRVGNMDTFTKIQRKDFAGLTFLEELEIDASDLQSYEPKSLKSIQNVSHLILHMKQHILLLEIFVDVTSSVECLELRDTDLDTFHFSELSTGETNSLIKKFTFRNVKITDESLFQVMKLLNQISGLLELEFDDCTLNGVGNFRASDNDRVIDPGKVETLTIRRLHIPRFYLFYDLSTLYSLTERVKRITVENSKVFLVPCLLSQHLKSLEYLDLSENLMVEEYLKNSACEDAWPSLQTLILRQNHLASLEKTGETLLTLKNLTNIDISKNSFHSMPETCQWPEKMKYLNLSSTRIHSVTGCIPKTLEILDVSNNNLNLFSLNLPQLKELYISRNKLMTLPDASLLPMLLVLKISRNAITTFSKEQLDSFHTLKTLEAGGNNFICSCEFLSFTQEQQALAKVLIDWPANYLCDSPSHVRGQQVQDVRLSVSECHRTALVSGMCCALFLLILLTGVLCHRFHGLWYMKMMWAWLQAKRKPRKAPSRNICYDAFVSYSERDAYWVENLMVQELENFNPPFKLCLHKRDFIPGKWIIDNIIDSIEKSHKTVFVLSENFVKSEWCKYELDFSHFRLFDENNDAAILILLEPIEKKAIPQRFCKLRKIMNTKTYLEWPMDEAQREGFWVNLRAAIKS

Sequence of UniProt P08571 (P08571 20-345): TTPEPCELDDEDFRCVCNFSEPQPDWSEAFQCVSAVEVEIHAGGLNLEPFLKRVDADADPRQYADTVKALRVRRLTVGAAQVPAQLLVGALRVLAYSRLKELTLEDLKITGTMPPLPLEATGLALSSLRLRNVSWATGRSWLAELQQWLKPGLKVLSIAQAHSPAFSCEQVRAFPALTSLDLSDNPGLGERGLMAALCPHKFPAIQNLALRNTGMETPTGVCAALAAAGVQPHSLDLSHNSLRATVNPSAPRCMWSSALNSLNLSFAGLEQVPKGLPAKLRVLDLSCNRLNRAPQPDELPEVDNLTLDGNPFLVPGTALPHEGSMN

For the substance “Streptococcal inhibitor of complement (SIC) from S. pyogenes M1 strain AP1 (natural protein)”, the Kd – broadly, the free concentration of one partner at which half of the binding sites on the other are occupied at equilibrium, for simple one-to-one binding – with CD14 is 2.52 µM; in the assay with TLR2, 12.9 µM.
